These results are taken from US20230416942A1 (YALE UNIVERSITY, published 2023).

One experiment concerns the target T1, CEACAM4 (human, UniProt O75871 36-155, limits assumed).
T1 construct: Recombinant human protein in ELISA
T1 sequence (looked up): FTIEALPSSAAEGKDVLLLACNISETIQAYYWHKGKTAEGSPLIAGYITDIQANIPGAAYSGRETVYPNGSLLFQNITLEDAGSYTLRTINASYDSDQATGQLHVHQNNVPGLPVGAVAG
The experiment can be described thus: ELISA, plate-coated recombinant human protein, nanobody-Fc. The procedure:
(§1) Recombinant human protein was diluted in PBS to a final concentration of 5 μg/mL and was immobilized on 96-well flat bottom MaxiSorp plates (Thermo Fisher Scientific) and placed at 4° C. overnight. Plates were washed three times with 225 μL ELISA wash buffer (PBS with 0.05% Tween 20) and 200 μL ELISA blocking buffer (PBS with 1% Casein) was added to the well. Plates were incubated with shaking for 2 hours at room temperature. ELISA blocking buffer was removed from the wells and appropriate dilutions of recombinant nanobodies in 100 μL ELISA blocking buffer was added to each well. Plates were incubated with shaking for 2 hours at room temperature. Plates were washed 3 times with 225 μL ELISA wash buffer and 1:5000 goat anti-human IgG HRP (Millipore Sigma) in 100 μL ELISA blocking buffer was added to the wells. Plates were incubated with shaking for 1 hour at room temperature. Plates were washed 6 times with 225 μL ELISA wash buffer. 50 μL TMB substrate (BD Biosciences) was added to the wells and plates were incubated for 15 minutes in the dark at room temperature. 50 μL 1 M sulfuric acid was added to the wells and absorbance at 450 nm was measured in a Synergy HTX Multi-Mode Microplate Reader (BioTek).

The target of a further experiment is T2, CD3D (human, UniProt P04234 22-105).
T2 construct: Recombinant human protein in ELISA
T2 sequence (P04234 22-105 limits assumed): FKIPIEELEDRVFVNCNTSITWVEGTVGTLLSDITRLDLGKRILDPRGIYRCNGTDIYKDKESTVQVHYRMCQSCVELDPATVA
The experiment is described as above. As to the method:
as §1

In another experiment the target is T3, IL21 (human, UniProt Q9HBE4 32-162, limits assumed).
T3 construct: Recombinant human protein in ELISA
T3 sequence (Q9HBE4 32-162 limits assumed): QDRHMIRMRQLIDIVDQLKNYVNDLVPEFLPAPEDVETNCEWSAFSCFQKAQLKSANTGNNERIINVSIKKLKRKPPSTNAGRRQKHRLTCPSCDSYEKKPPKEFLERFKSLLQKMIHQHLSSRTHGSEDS
The experiment is described as above. As to the method: as §1

The target of experiment [1] is T4, TNF (recombinant human protein) (human, UniProt P01375 77-233).
T4 construct: Recombinant human protein immobilized at 5 ug/mL for ELISA
T4 sequence (P01375 77-233 limits assumed): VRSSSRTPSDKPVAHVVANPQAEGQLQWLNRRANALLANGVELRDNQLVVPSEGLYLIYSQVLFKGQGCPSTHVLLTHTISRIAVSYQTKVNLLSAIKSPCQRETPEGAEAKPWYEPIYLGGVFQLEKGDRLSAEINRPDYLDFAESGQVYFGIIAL
The experiment is described as follows: ELISA, recombinant human protein coated, nanobody-Fc titrated, anti-human IgG HRP. The procedure:
as §1

The target of the next experiment is REAP Off-Targets. The experiment can be described thus: REAP, nanobody-Fc on yeast-displayed human antigen library.
The next experiment addresses T5, CCL16 (human, UniProt O15467 24-120).
T5 construct: Recombinant human protein in ELISA and BLI
T5 sequence (looked up): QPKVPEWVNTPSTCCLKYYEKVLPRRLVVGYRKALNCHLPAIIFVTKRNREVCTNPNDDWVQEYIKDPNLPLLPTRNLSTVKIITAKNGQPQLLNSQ
The experiment is described as follows: ELISA, plate-coated recombinant human protein, nanobody-Fc. As to the method: as §1

Experiment [2] concerns the target T6, TNFSF18 (recombinant human protein) (human, UniProt Q9UNG2 52-177, limits assumed).
T6 construct: Recombinant human protein immobilized at 5 ug/mL for ELISA
T6 sequence (looked up): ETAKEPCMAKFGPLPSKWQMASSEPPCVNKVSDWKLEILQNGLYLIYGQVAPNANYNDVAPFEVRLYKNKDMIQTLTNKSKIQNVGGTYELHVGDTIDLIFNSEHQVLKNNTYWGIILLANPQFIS
The experiment can be described thus: ELISA, recombinant human protein coated, nanobody-Fc titrated, anti-human IgG HRP. The procedure: as §1

The next experiment concerns the target T7, IL13 (human, UniProt P35225 35-146, limits assumed).
T7 construct: Recombinant human protein in ELISA
The experiment can be described thus: ELISA, plate-coated recombinant human protein, nanobody-Fc. As to the method:
as §1

The next experiment has as its target T8, TIGIT (human, UniProt Q495A1 22-141).
T8 construct: Recombinant human protein in ELISA
T8 sequence (looked up): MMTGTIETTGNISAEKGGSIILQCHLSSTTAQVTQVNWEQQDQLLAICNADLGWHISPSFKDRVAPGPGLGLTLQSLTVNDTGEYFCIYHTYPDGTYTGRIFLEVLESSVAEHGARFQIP
The description is as above. The procedure: as §1

T7 sequence (P35225 35-146 limits assumed): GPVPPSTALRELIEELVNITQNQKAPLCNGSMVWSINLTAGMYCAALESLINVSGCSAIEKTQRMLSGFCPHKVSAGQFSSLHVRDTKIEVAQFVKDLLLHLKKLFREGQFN

B1: CEACAM4_Nb36 (Fc fusion)
chain: QVQLQESGGGLVQAGGSLRLSCAASGNIFLGPYMGWYRQAPGKEREFVASINYGASTNYADSVKGRFTISRDNAKNTVYLQMNSLKPEDTAVYYCAAGYYSNDYYYYEYSYWGQGTQVTVSS
notes: Nanobody expressed and tested as Fc fusion (human IgG1); not shown: human IgG1 Fc (vector pCER243)
Turning to B1, the EC50 in the experiment with CEACAM4 was 15.6 nM.

B2: CD3D_Nb2.34 (Fc fusion)
chain: QVQLQESGGGLVQAGGSLRLSCAASGTISTLDYMGWYRQAPGKEREFVAAINYGSNTYYADSVKGRFTISRDNAKNTVYLQMNSLKPEDTAVYYCAAADVTRPAYDYWGQGTQVTVSS
notes: as for B1
As to B2, the EC50 with CD3D is 0.575 nM.

B3: CD3D_Nb2.35 (Fc fusion)
chain: QVQLQESGGGLVQAGGSLRLSCAASGTIFAYWYMGWYRQAPGKEREFVAAIGDGSSTYYADSVKGRFTISRDNAKNTVYLQMNSLKPEDTAVYYCAAEAPGYGHTYWGQGTQVTVSS
notes: as for B1
B3: in the experiment with CD3D, the EC50 is 1.72 nM.

B4: IL21 Nb2.29 (Fc fusion)
chain: QVQLQESGGGLVQAGGSLRLSCAASGNISWGTIMGWYRQAPGKEREFVAAISHGANTNYADSVKGRFTISRDNAKNTVYLQMNSLKPEDTAVYYCAAQSRAGSTRPRYHKYWGQGTQVTVSS
notes: as for B1
For the molecule B4, the EC50 with IL21 turned out to be 3.73 nM.

B5: CEACAM4_Nb41 (Fc fusion)
chain: QVQLQESGGGLVQAGGSLRLSCAASGTISRSSIMGWYRQAPGKEREFVAGISYGSTTYYADSVKGRFTISRDNAKNTVYLQMNSLKPEDTAVYYCAVRDLYVWDHAYWGQGTQVTVSS
notes: as for B1
B5: in the experiment with CEACAM4, the EC50 was determined as 32.7 nM.

B6: IL21_Nb2.30 (Fc fusion)
chain: QVQLQESGGGLVQAGGSLRLSCAASGTIFRETVMGWYRQAPGKERELVAAIDDGTSTYYADSVKGRFTISRDNAKNTVYLQMNSLKPEDTAVYYCAARASYTYGRLRFRYWGQGTQVTVSS
notes: as for B1
For B6, the EC50 with IL21 amounted to 7.16 nM.

B7: TNF_Nb109 (Fc fusion)
chain: QVQLQESGGGLVQAGGSLRLSCAASGYISGEWFMGWYRQAPGKERELVAGISRGSTTYYADSVKGRFTISRDNAKNTVYLQMNSLKPEDTAVYYCAVYLTHKGYDGADGVVHHRYWGQGTQVTVSS
notes: Nanobody expressed as an Fc fusion protein (fused with human IgG1) in Expi293 cells; not shown: human IgG1 Fc; nanobodies expressed as Fc fusion from vector pCER243
For B7, the EC50 in [1] is 23.8 nM. In the experiment with REAP Off-Targets, this molecule showed an REAP Off-Targets (number) of 7 off-targets.

B8: CCL16_Nb2.5 (Fc fusion)
chain: QVQLQESGGGLVQAGGSLRLSCAASGYIFGVYDMGWYRQAPGKERELVATISAGGTTNYADSVKGRFTISRDNAKNTVYLQMNSLKPEDTAVYYCAAYTDYSPYDGAALVYWGQGTQVTVSS
notes: as for B1
On to B8, for which the EC50 with CCL16 was 1.78 nM.

B9: TNFSF18_Nb96 (Fc fusion)
chain: QVQLQESGGGLVQAGGSLRLSCAASGNISWVYWMGWYRQAPGKERELVAGIATGGSTNYADSVKGRFTISRDNAKNTVYLQMNSLKPEDTAVYYCAVVASNGSRFWYWGQGTQVTVSS
notes: as for B7
As to B9, the EC50 in [2] was found to be 4.07 nM. Besides, the REAP Off-Targets (number) with REAP Off-Targets turned out to be 6 off-targets.

B10: CD3D_Nb2.33 (Fc fusion)
chain: QVQLQESGGGLVQAGGSLRLSCAASGSIFYAEYMGWYRQAPGKEREFVAAITAGSTTYYADSVKGRFTISRDNAKNTVYLQMNSLKPEDTAVYYCAADGYYYGIEFTYYEYWGQGTQVTVSS
notes: as for B1
Take B10: the EC50 with CD3D amounted to 8.22 nM.

B11: TNFSF18_Nb98 (Fc fusion)
chain: QVQLQESGGGLVQAGGSLRLSCAASGSIFYVIAMGWYRQAPGKERELVATITAGTNTYYADSVKGRFTISRDNAKNTVYLQMNSLKPEDTAVYYCAVYALQQDVYDRSHAYWGQGTQVTVSS
notes: as for B7
Consider B11, for which, in [2], the EC50 amounted to 6.05 nM. The molecule also yielded an REAP Off-Targets (number) with REAP Off-Targets of 4 off-targets.

B12: TNF_Nb105 (Fc fusion)
chain: QVQLQESGGGLVQAGGSLRLSCAASGTISVTYFMGWYRQAPGKERELVAGIGTGANTYYADSVKGRFTISRDNAKNTVYLQMNSLKPEDTAVYYCAAYIGAPVYGDGQSRNKAKVYDYWGQGTQVTVSS
notes: as for B7
With B12, the EC50 in [1] was 5.57 nM. The REAP Off-Targets (number) with REAP Off-Targets stood at 2 off-targets.

B13: IL13_Nb2.41 (Fc fusion)
chain: QVQLQESGGGLVQAGGSLRLSCAASGTIFVDEFMGWYRQAPGKEREFVASINDGGSTYYADSVKGRFTISRDNAKNTVYLQMNSLKPEDTAVYYCAVFEPSPDGDPFGDRAWFWYWGQGTQVTVSS
notes: as for B1
Take B13: the EC50 in the experiment with IL13 amounted to 1.02 nM.

B14: IL13_Nb2.42 (Fc fusion)
chain: QVQLQESGGGLVQAGGSLRLSCAASGTISATDFMGWYRQAPGKERELVAAINHGGSTYYADSVKGRFTISRDNAKNTVYLQMNSLKPEDTAVYYCAAARDDYPWHDYWGQGTQVTVSS
notes: as for B1
As to B14, the EC50 with IL13 is 38.4 nM.

B15: TIGIT_Nb2.82 (Fc fusion)
chain: QVQLQESGGGLVQAGGSLRLSCAASGTISVVQDMGWYRQAPGKERELVAGIAKGGNTYYADSVKGRFTISRDNAKNTVYLQMNSLKPEDTAVYYCAASPIPFSYAYPAYHYWGQGTQVTVSS
notes: as for B1
For B15, the EC50 with TIGIT is 12.8 nM.

B16: CD3D_Nb2.36 (Fc fusion)
chain: QVQLQESGGGLVQAGGSLRLSCAASGSISAYWAMGWYRQAPGKEREFVAAINFGANTYYADSVKGRFTISRDNAKNTVYLQMNSLKPEDTAVYYCAAERDGDYHDYWGQGTQVTVSS
notes: as for B1
Regarding B16, the EC50 in the experiment with CD3D was 29.6 nM.

B17: TNFSF18_Nb93 (Fc fusion)
chain: QVQLQESGGGLVQAGGSLRLSCAASGNISDPPFMGWYRQAPGKERELVAGISWGASTYYADSVKGRFTISRDNAKNTVYLQMNSLKPEDTAVYYCAAVTTDFGAYPFAYWGQGTQVTVSS
notes: as for B7
In the case of B17, the EC50 in experiment [2] came to 1.59 nM.

B18: CEACAM4_Nb40 (Fc fusion)
chain: QVQLQESGGGLVQAGGSLRLSCAASGTISPGYGMGWYRQAPGKEREFVATIAFGSSTYYADSVKGRFTISRDNAKNTVYLQMNSLKPEDTAVYYCAVAIYIPYFFRYWGQGTQVTVSS
notes: as for B1
For the molecule B18, the EC50 with CEACAM4 was found to be 14.5 nM.

B19: TIGIT_Nb2.81 (Fc fusion)
chain: QVQLQESGGGLVQAGGSLRLSCAASGTISLLEYMGWYRQAPGKEREFVAAITGGSSTNYADSVKGRFTISRDNAKNTVYLQMNSLKPEDTAVYYCAASLVPYDKDNLFFGYWGQGTQVTVSS
notes: as for B1
With B19, the EC50 with TIGIT amounted to 29.8 nM.

B20: TNFSF18_Nb94 (Fc fusion)
chain: QVQLQESGGGLVQAGGSLRLSCAASGNISLYYDMGWYRQAPGKERELVAAIDPGTITYYADSVKGRFTISRDNAKNTVYLQMNSLKPEDTAVYYCAVVIPDYVYRYVVGTVDYGYWGQGTQVTVSS
notes: as for B7
Turning to B20, the EC50 in [2] was 71.8 nM. Moreover, the REAP Off-Targets (number) with REAP Off-Targets came out at 1 off-targets.

B21: IL21_Nb2.28 (Fc fusion)
chain: QVQLQESGGGLVQAGGSLRLSCAASGSISNTYVMGWYRQAPGKERELVAAIGHGGTTYYADSVKGRFTISRDNAKNTVYLQMNSLKPEDTAVYYCAVYLSRVRKFYYWGQGTQVTVSS
notes: as for B1
For the molecule B21, in the experiment with IL21, the EC50 turned out to be 3.14 nM.

B22: TIGIT_Nb2.84 (Fc fusion)
chain: QVQLQESGGGLVQAGGSLRLSCAASGNISYVRWMGWYRQAPGKERELVAGIGVGGITNYADSVKGRFTISRDNAKNTVYLQMNSLKPEDTAVYYCAATDVDWILYRYWGQGTQVTVSS
notes: as for B1
B22: the EC50 with TIGIT is 483 nM.

B23: TNFSF18_Nb101 (Fc fusion)
chain: QVQLQESGGGLVQAGGSLRLSCAASGYIFDDYGMGWYRQAPGKERELVATINAGANTNYADSVKGRFTISRDNAKNTVYLQMNSLKPEDTAVYYCAVYYGPYYRYLDPYLYWGQGTQVTVSS
notes: as for B7
For B23, the EC50 in [2] amounted to 22.6 nM.
